T1: TBK1 (as used in Example 6; construct not named) (Homo sapiens (Human), UniProt Q9UHD2 1-729)
T1 construct: also called HA-TBK1 (constructed, probably the one used)
T1 sequence: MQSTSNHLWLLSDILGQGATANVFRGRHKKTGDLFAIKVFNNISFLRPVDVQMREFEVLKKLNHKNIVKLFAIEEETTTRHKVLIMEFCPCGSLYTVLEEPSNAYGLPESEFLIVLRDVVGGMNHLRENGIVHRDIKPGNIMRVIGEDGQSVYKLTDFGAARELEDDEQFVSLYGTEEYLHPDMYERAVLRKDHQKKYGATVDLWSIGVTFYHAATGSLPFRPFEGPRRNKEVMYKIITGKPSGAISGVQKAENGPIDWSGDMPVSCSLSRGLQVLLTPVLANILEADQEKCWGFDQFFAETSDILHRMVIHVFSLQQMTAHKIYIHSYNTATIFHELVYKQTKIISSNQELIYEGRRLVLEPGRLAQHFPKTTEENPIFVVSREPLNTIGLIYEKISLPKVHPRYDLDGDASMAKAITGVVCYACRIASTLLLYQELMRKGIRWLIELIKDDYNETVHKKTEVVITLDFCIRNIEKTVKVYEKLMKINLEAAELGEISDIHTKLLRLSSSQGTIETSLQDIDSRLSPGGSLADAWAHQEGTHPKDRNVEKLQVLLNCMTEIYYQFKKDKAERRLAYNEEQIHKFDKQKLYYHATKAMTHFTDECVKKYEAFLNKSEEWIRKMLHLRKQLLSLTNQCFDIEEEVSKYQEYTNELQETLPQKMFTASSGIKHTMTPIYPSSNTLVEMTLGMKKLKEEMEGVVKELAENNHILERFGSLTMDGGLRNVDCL

B1: FLAG-γ134.5 Δ72 (other)
chain: MARRRRHRGPRRPRPPGPTGAVPTAQSQVASDDDDDDDWPDSPPPEPAPEARPTAAAPRPRSPPPGAGPGGGANPSHPPSRPFRLPPRLALRLRVTAEHLARLRLRRAGGEGAPEPPATPATPATPATPATPATPATPATPATPATPARVRFSPHVRVRHLVVWASAARLARRGSWARERADRARFRRRVAEAEAVIGPCLGPEARARALARGAGPANSV
notes: Deletion 'encompassing amino acids 30 to 72'; the printed limits overlap with the neighbouring deletions, so the exact junction is uncertain
B2: FLAG-γ134.5 N159 (other)
chain: MARRRRHRGPRRPRPPGPTGAVPTAQSQVTSTPNSEPAVRSAPAAAPPPPPASGPPPSCSLLLRQWLHVPESASDDDDDDDWPDSPPPEPAPEARPTAAAPRPRSPPPGAGPGGGANPSHPPSRPFRLPPRLALRLRVTAEHLARLRLRRAGGEGAPE
notes: Carboxyl-terminal domain deleted; the exact last residue (158 or 159) is uncertain
B3: FLAG-γ134.5 Δ30 (other)
chain: STPNSEPAVRSAPAAAPPPPPASGPPPSCSLLLRQWLHVPESASDDDDDDDWPDSPPPEPAPEARPTAAAPRPRSPPPGAGPGGGANPSHPPSRPFRLPPRLALRLRVTAEHLARLRLRRAGGEGAPEPPATPATPATPATPATPATPATPATPATPATPARVRFSPHVRVRHLVVWASAARLARRGSWARERADRARFRRRVAEAEAVIGPCLGPEARARALARGAGPANSV
notes: Deletion 'encompassing amino acids 1 to 30'

The binders below were run against T1, TBK1 (as used in Example 6; construct …) (assay: co-immunoprecipitation from transfected 293T cells).

Binder | binding result
B1 | binds
B2 | binds
B3 | binds
